Laboratory results: article PMC3616122, “Crystal Structure of KLHL3 in Complex with Cullin3” (PLoS ONE, 2013)
Numbering of substitutions follows the chain as printed. Numbers in names are those of the source.

B1: KLHL3^BTB-BACK, human KLHL3 residues 27-276, wild type (domain or fragment, UniProt Q9UH77 27-276, looked up)
chain: TVNPAHMGKAFKVMNELRSKQLLCDVMIVAEDVEIEAHRVVLAACSPYFCAMFTGDMSESKAKKIEIKDVDGQTLSKLIDYIYTAEIEVTEENVQVLLPAASLLQLMDVRQNCCDFLQSQLHPTNCLGIRAFADVHTCTDLLQQANAYAEQHFPEVMLGEEFLSLSLDQVCSLISSDKLTVSSEEKVFEAVISWINYEKETRLEHMAKLMEHVRLPLLPRDYLVQTVEEEALIKNNNTCKDFLIEAMKYH
notes: KLHL3, human, residues 27-276 (BTB and BACK domains), without the surface entropy reduction mutations; PDB 4HXI holds the same limits with K87A/K89A/K90A; Removal of the His tag is told only for Cul3^NTD; also called wild-type KLHL3^BTB-BACK; source: E. coli BL21 DE3 Codon+, purified (NiNTA, Superdex S75 SEC)
B2: KLHL3^BTB-BACK M78V (PHAII mutation) (domain or fragment, human, UniProt Q9UH77 27-276, looked up)
chain: B1 chain with M52V
notes: KLHL3, human, residues 27-276, PHAII patient mutation M78V introduced into the wild-type KLHL3^BTB-BACK plasmid; PDB 4HXI holds the same limits with K87A/K89A/K90A and without M78V; source: E. coli BL21 DE3 Codon+, purified (NiNTA, Superdex S75 SEC)
B3: KLHL3^BTB-BACK E85A (PHAII mutation) (domain or fragment, human, UniProt Q9UH77 27-276, looked up)
chain: B1 chain with E59A
notes: KLHL3, human, residues 27-276, PHAII patient mutation E85A introduced into the wild-type KLHL3^BTB-BACK plasmid; PDB 4HXI holds the same limits with K87A/K89A/K90A and without E85A; source: E. coli BL21 DE3 Codon+, purified (NiNTA, Superdex S75 SEC)
B4: KLHL3^BTB-BACK A77E (PHAII mutation) (domain or fragment, human, UniProt Q9UH77 27-276, looked up)
chain: B1 chain with A51E
notes: KLHL3, human, residues 27-276, PHAII patient mutation A77E introduced into the wild-type KLHL3^BTB-BACK plasmid; PDB 4HXI holds the same limits with K87A/K89A/K90A and without A77E; source: E. coli BL21 DE3 Codon+, purified (NiNTA, Superdex S75 SEC)
B5: KLHL3^BTB-BACK C164F (PHAII mutation) (domain or fragment, human, UniProt Q9UH77 27-276, looked up)
chain: B1 chain with C138F
notes: KLHL3, human, residues 27-276, PHAII patient mutation C164F introduced into the wild-type KLHL3^BTB-BACK plasmid; PDB 4HXI holds the same limits with K87A/K89A/K90A and without C164F; source: E. coli BL21 DE3 Codon+, purified (NiNTA, Superdex S75 SEC)
B6: KLHL3^BTB-BACK, human KLHL3 residues 27-276, surface entropy reduction version K87A/K89A/K90A used in crystallization (domain or fragment, UniProt Q9UH77 27-276, looked up)
chain: B1 chain with K61A, K63A, K64A
notes: KLHL3, human, residues 27-276 (BTB and BACK domains) with three lysines mutated to alanine for crystallization; residues 32-223 are in the final model; also called KLHL3^BTB-BACK (SER); source: E. coli BL21 DE3 Codon+, purified (NiNTA, Superdex S75 SEC)

What was measured:
[1] = target: T1, Cul3^NTD, N-terminal domain of Cullin3 residues 20-381 with stabilizing mutations I342R/L346D (human, UniProt Q13618 20-381, I342R | L346D); experiment: ITC; VP-ITC at 25°C in buffer A; KLHL3^BTB-BACK at 150 µM injected into Cul3^NTD at 15 µM; one-site binding model; a single titration for each protein; conditions: both partners purified
T1 construct: residues 26-379 are in the final model; also called Cul3 N-terminal domain; source: E. coli BL21 DE3 Codon+, purified (NiNTA, TEV cleavage, Superdex S75 SEC); not shown: thioredoxin, N-terminal, cleaved; His tag, N-terminal, cleaved

[2] = target: the molecule itself; experiment: SEC; Superdex S75 in buffer A (20 mM Tris pH 7.5, 150 mM NaCl, 1 mM TCEP, 10% v/v glycerol), elution monitored at 280 nm; proteins alone and an equimolar mixture
[3] = target: T1, Cul3^NTD, N-terminal domain of Cullin3 …; experiment: crystal structure; KLHL3^BTB-BACK (SER version) and Cul3^NTD mixed 1:1 at 10 mg/ml total; hanging drop, 0.1 M sodium tartrate, 17% w/v PEG 3350, room temperature; 3.5 Å; one chain of each in the asymmetric unit, BTB homodimer by a crystallographic 2-fold; conditions: both partners purified
[4] = target: the molecule itself; experiment: as above

T1 sequence (Q13618 20-381 I342R/L346D): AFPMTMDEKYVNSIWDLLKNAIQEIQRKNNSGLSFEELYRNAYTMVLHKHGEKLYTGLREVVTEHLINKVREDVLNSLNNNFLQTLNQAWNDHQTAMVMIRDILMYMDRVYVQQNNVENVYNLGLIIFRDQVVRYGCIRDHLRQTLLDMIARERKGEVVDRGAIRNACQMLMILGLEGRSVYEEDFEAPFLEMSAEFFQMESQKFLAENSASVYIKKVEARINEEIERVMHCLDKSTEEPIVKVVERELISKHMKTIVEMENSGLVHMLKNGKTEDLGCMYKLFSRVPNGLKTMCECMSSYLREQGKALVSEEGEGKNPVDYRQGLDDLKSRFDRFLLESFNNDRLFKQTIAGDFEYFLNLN

Binder	Kd [1] [nM]	stoichiometry N [2]	also measured
B1	108	2	stoichiometry N [1]: 1
B2		2	
B3		2	
B4		2	
B5	4100	2	
B6			binding result [3]: binds; binding result [4]: binds
